The values that follow come from publication PMC11329700 (2024).

To fix the notation:
B1: GST-Dyn1xA-PRR (dynamin 1xA proline-rich region, amino acids 746-864) [rat] / Amphiphysin 1 [rat (endogenous in rat brain synaptosomes)] (parent complex)
chain 1: NTTTVSTPMPPPVDDSWLQVQSVPAGRRSPTSSPTPQRRAPAVPPARPGSRGPAPGPPPAGSALGGAPPVPSRPGASPDPFGPPPQVPSRPNRAPPGVPSRSGQASPSRPESPRPPFDL
chain 2: MADIKTGIFAKNVQKRLNRAQEKVLQKLGKADETKDEQFEEYVQNFKRQEAEGTRLQRELRGYLAAIKGMQEASMKLTESLHEVYEPDWYGREDVKMVGEKCDVLWEDFHQKLVDGSLLTLDTYLGQFPDIKNRIAKRSRKLVDYDSARHHLEALQSSKRKDESRISKAEEEFQKAQKVFEEFNVDLQEELPSLWSRRVGFYVNTFKNVSSLEAKFHKEIAVLCHKLYEVMTKLGDQHADKAFSIQGAPSDSGPLRIAKTPSPPEEASPLPSPTASPNHTLAPASPAPVRPRSPSQTRKGPPVPPLPKVTPTKELQQENIINFFEDNFVPEINVTTPSQNEVLEVKKEETLLDLDFDPFKPDVTPAGSAAATHSPMSQTLPWDLWTTSTDLVQPASGGSFNDFTQPQDTSLFTMQTDQNMAETEQALPTEPQAEEPPTTAAAPTAGLDLGLEMEEPKEEAAIPPGTDAGETVGTEGSTGEEAEAEKAALPAGEGESPEGAKIDVESTELASSESPQAAELEAGAPQEKVIPSVVIEPASNHEGEEHQETTTGTETREATEDVAPQGPAGEKQELATEPTPLDSQAATPAPAGAVDASLSAGDAAQELPPGFLYKVETLHDFEAANSDELTLQRGDVVLVVPSDSEADQDAGWLVGVKESDWLQYRDLATYKGLFPENFTRHLE

This assay covers variants of B1. Nature of the assay: GST pull-down, quantified Western blot; parent: 60; read off a plot.
Take chain 1 R101A: the response was approximately 51 normalized intensity.
